Results reported in patent US20220177604A1.
Where two headings read alike, the source gives them in different places.

Experiments:
[1] = target: human IgE pre-bound on human basophils (human) (UniProt P01854); assay: cell-based or functional assay
[2] = target: biotinylated human FcRn (human) (UniProt P55899); assay: FcRn binding ELISA at pH 7: biotinylated human FcRn on neutravidin, anti-human IgG-Fc-HRP
[3] = target: biotinylated human FcRn (human) (UniProt P55899); assay: competition ELISA at pH 6: biotinylated human FcRn on neutravidin, competitor recombinant hIgG3 (m8), bound IgG3 detected
[4] = target: biotinylated human FcRn (human) (UniProt P55899); assay: as above; remark: listed apart in the source
[5] = target: biotinylated human FcRn (human) (UniProt P55899); assay: FcRn binding ELISA at pH 7: biotinylated human FcRn on neutravidin, anti-human IgG-Fc-HRP; remark: listed apart in the source
[6] = target: biotinylated human FcRn (human) (UniProt P55899); assay: FcRn binding ELISA at pH 6: biotinylated human FcRn on neutravidin, anti-human IgG-Fc-HRP
[7] = target: biotinylated human FcRn (human) (UniProt P55899); assay: competition ELISA at pH 6: biotinylated human FcRn on neutravidin, competitor recombinant hIgG3 (m8), bound IgG3 detected; remark: listed apart in the source
[8] = target: biotinylated human FcRn (human) (UniProt P55899); assay: FcRn binding ELISA at pH 6: biotinylated human FcRn on neutravidin, anti-human IgG-Fc-HRP; remark: listed apart in the source

% of activated basophils (CCR3+CD63+) [1] [%]	EC50 (read off the curve) [2] [nM]	IC50 (read off the curve) [3] [nM]	IC50 (read off the curve) [4] [nM]	EC50 (read off the curve) [5] [nM]	EC50 (read off the curve) [6] [nM]	IC50 (read off the curve) [7] [nM]	EC50 (read off the curve) [8] [nM]	Substance
3	–	–	–	–	–	–	–	Irrelevant antibody
–	0.09	0.9	0.6	0.02	0.05	0.7	0.06	Efgartigimod
